# From patent US20090099029
# B1: MATK(HYL) (protein)
# chain: MQGHFPAERREGRPRRGTRGQQQLLVSPRFLRAWHPPPVSARMPTRRWAPGTQCITKCEHTRPKPGELAFRKGDVVTILEACENKSWYRVKHHTSGQEGLLAAGALREREALSADPKLSLMPWFHGKISGQEAVQQLQPPEDGLFLVRESARHPGDYVLCVSFGRDVIHYRVLHRDGHLTIDEAVFFCNLMDMVEHYSKDKGAICTKLVRPKRKHGTKSAEEELARAGWLLNLQHLTLGAQIGEGEFGAVLQGEYLGQKVAVKNIKCDVTAQAFLDETAVMTKMQHENLVRLLGVILHQGLYIVMEHVSKGNLVNFLRTRGRALVNTAQLLQFSLHVAEGMEYLESKKLVHRDLAARNILVSEDLVAKVSDFGLAKAERKGLDSSRLPVKWTAPEALKHGKFTSKSDVWSFGVLLWEVFSYGRAPYPKMSLKEVSEAVEKGYRMEPPEGCPGPVHVLMSSCWEAEPARRPPFRKLAEKLARELRSAGAPASVSGQDADGSTSPRSQEP
# B2: ADRBK1(GRK2) (protein)
# chain: MADLEAVLADVSYLMAMEKSKATPAARASKKILLPEPSIRSVMQKYLEDRGEVTFEKIFSQKLGYLLFRDFCLNHLEEARPLVEFYEEIKKYEKLETEEERVARSREIFDSYIMKELLACSHPFSKSATEHVQGHLGKKQVPPDLFQPYIEEICQNLRGDVFQKFIESDKFTRFCQWKNVELNIHLTMNDFSVHRIIGRGGFGEVYGCRKADTGKMYAMKCLDKKRIKMKQGETLALNERIMLSLVSTGDCPFIVCMSYAFHTPDKLSFILDLMNGGDLHYHLSQHGVFSEADMRFYAAEIILGLEHMHNRFVVYRDLKPANILLDEHGHVRISDLGLACDFSKKKPHASVGTHGYMAPEVLQKGVAYDSSADWFSLGCMLFKLLRGHSPFRQHKTKDKHEIDRMTLTMAVELPDSFSPELRSLLEGLLQRDVNRRLGCLGRGAQEVKESPFFRSLDWQMVFLQKYPPPLIPPRGEVNAADAFDIGSFDEEDTKGIKLLDSDQELYRNFPLTISERWQQEVAETVFDTINAETDRLEARKKAKNKQLGHEEDYALGKDCIMHGYMSKMGNPFLTQWQRRYFYLFPNRLEWRGEGEAPQSLLTMEEIQSVEETQIKERKCLLLKIRGGKQFILQCDSDPELVQWKKELRDAYREAQQLVQRVPKMKNKPRSPVVELSKVPLVQRGSANGL
# B3: TEC (protein)
# chain: MNFNTILEEILIKRSQQKKKTSPLNYKERLFVLTKSMLTYYEGRAEKKYRKGFIDVSKIKCVEIVKNDDGVIPCQNKYPFQVVHDANTLYIFAPSPQSRDLWVKKLKEEIKNNNNIMIKYHPKFWTDGSYQCCRQTEKLAPGCEKYNLFESSIRKALPPAPETKKRRPPPPIPLEEEDNSEEIVVAMYDFQAAEGHDLRLERGQEYLILEKNDVHWWRARDKYGNEGYIPSNYVTGKKSNNLDQYEWYCRNMNRSKAEQLLRSEDKEGGFMVRDSSQPGLYTVSLYTKFGGEGSSGFRHYHIKETTTSPKKYYLAEKHAFGSIPEIIEYHKHNAAGLVTRLRYPVSVKGKNAPTTAGFSYEKWEINPSELTFMRELGSGLFGVVRLGKWRAQYKVAIKAIREGAMCEEDFIEEAKVMMKLTHPKLVQLYGVCTQQKPIYIVTEFMERGCLLNFLRQRQGHFSRDVLLSMCQDVCEGMEYLERNSFIHRDLAARNCLVSEAGVVKVSDFGMARYVLDDQYTSSSGAKFPVKWCPPEVFNYSRFSSKSDVWSFGVLMWEVFTEGRMPFEKYTNYEVVTMVTRGHRLYQPKLASNYVYEVMLRCWQEKPEGRPSFEDLLRTIDELVECEETFGR
# B4: JAK3 (protein)
# chain: ISSDYELLSDPTPGALAPRDGLWNGAQLYACQDPTIFEERHLKYISQLGKGNFGSVELCRYDPLGDNTGALVAVKQLQHSGPDQQRDFQREIQILKALHSDFIVKYRGVSYGPGRQSLRLVMEYLPSGCLRDFLQRHRARLDASRLLLYSSQICKGMEYLGSRRCVHRDLAARNILVESEAHVKIADFGLAKLLPLDKDYYVVREPGQSPIFWYAPESLSDNIFSRQSDVWSFGVVLYELFTYCDKSCSPSAEFLRMMGCERDVPALCRLLELLEEGQRLPAPPACPAEVHELMKLCWAPSPQDRPSFSALGPQLDMLWSGSRGCETHAFTAHPEGKHHSLSFS
# B5: FES (protein)
# chain: MGFSSELCSPQGHGVLQQMQEAELRLLEGMRKWMAQRVKSDREYAGLLHHMSLQDSGGQSRAISPDSPISQSWAEITSQTEGLSRLLRQHAEDLNSGPLSKLSLLIRERQQLRKTYSEQWQQLQQELTKTHSQDIEKLKSQYRALARDSAQAKRKYQEASKDKDRDKAKDKYVRSLWKLFAHHNRYVLGVRAAQLHHQHHHQLLLPGLLRSLQDLHEEMACILKEILQEYLEISSLVQDEVVAIHREMAAAAARIQPEAEYQGFLRQYGSAPDVPPCVTFDESLLEEGEPLEPGELQLNELTVESVQHTLTSVTDELAVATEMVFRRQEMVTQLQQELRNEEENTHPRERVQLLGKRQVLQEALQGLQVALCSQAKLQAQQELLQTKLEHLGPGEPPPVLLLQDDRHSTSSSEQEREGGRTPTLEILKSHISGIFRPKFSLPPPLQLIPEVQKPLHEQLWYHGAIPRAEVAELLVHSGDFLVRESQGKQEYVLSVLWDGLPRHFIIQSLDNLYRLEGEGFPSIPLLIDHLLSTQQPLTKKSGVVLHRAVPKDKWVLNHEDLVLGEQIGRGNFGEVFSGRLRADNTLVAVKSCRETLPPDLKAKFLQEARILKQYSHPNIVRLIGVCTQKQPIYIVMELVQGGDFLTFLRTEGARLRVKTLLQMVGDAAAGMEYLESKCCIHRDLAARNCLVTEKNVLKISDFGMSREEADGVYAASGGLRQVPVKWTAPEALNYGRYSSESDVWSFGILLWETFSLGASPYPNLSNQQTREFVEKGGRLPCPELCPDAVFRLMEQCWAYEPGQRPSFSTIYQELQSIRKRHR
# B6: PTK2(FAK) (protein)
# chain: MAAAYLDPNLNHTPNSSTKTHLGTGMERSPGAMERVLKVFHYFESNSEPTTWASIIRHGDATDVRGIIQKIVDSHKVKHVACYGFRLSHLRSEEVHWLHVDMGVSSVREKYELAHPPEEWKYELRIRYLPKGFLNQFTEDKPTLNFFYQQVKSDYMLEIADQVDQEIALKLGCLEIRRSYWEMRGNALEKKSNYEVLEKDVGLKRFFPKSLLDSVKAKTLRKLIQQTFRQFANLNREESILKFFEILSPVYRFDKECFKCALGSSWIISVELAIGPEEGISYLTDKGCNPTHLADFTQVQTIQYSNSEDKDRKGMLQLKIAGAPEPLTVTAPSLTIAENMADLIDGYCRLVNGTSQSFIIRPQKEGERALPSIPKLANSEKQGMRTHAVSVSETDDYAEIIDEEDTYTMPSTRDYEIQRERIELGRCIGEGQFGDVHQGIYMSPENPALAVAIKTCKNCTSDSVREKFLQEALTMRQFDHPHIVKLIGVITENPVWIIMELCTLGELRSFLQVRKYSLDLASLILYAYQLSTALAYLESKRFVHRDIAARNVLVSSNDCVKLGDFGLSRYMEDSTYYKASKGKLPIKWMAPESINFRRFTSASDVWMFGVCMWEILMHGVKPFQGVKNNDVIGRIENGERLPMPPNCPPTLYSLMTKCWAYDPSRRPRFTELKAQLSTILEEEKAQQEERMRMESRRQATVSWDSGGSDEAPPKPSRPGYPSPRSSEGFYPSPQHMVQTNHYQVSGYPGSHGITAMAGSIYPGQASLLDQTDSWNHRPQEIAMWQPNVEDSTVLDLRGIGQVLPTHLMEERLIRQQQEMEEDQRWLEKEERFLKPDVRLSRGSIDREDGSLQGPIGNQHIYQPVGKPDPAAPPKKPPRPGAPGHLGSLASLSSPADSYNEGVKLQPQEISPPPTANLDRSNDKVYENVTGLVKAVIEMSSKIQPAPPEEYVPMVKEVGLALRTLLATVDETIPLLPASTHREIEMAQKLLNSDLGELINKMKLAQQYVMTSLQQEYKKQMLTAAHALAVDAKNLLDVIDQARLKMLGQTRPH
# B7: EPHA1 (protein)
# chain: RSRRAQRQRQQRQRDRATDVDREDKLWLKPYVDLQAYEDPAQGALDFTRELDPAWLMVDTVIGEGEFGEVYRGTLRLPSQDCKTVAIKTLKDTSPGGQWWNFLREATIMGQFSHPHILHLEGVVTKRKPIMIITEFMENGALDAFLREREDQLVPGQLVAMLQGIASGMNYLSNHNYVHRDLAARNILVNQNLCCKVSDFGLTRLLDDFDGTYETQGGKIPIRWTAPEAIAHRIFTTASDVWSFGIVMWEVLSFGDKPYGEMSNQEVMKSIEDGYRLPPPVDCPAPLYELMKNCWAYDRARRPHFQKLQAHLEQLLANPHSLRTIANFDPRMTLRLPSLSGSDGIPYRTVSEWLESIRMKRYILHFHSAGLDTMECVLELTAEDLTQMGITLPGHQKRILCSIQGFKD
# B8: LYNA (protein)
# chain: MGCIKSKGKDSLSDDGVDLKTQPVRNTERTIYVRDPTSNKQQRPVPESQLLPGQRFQTKDPEEQGDIVVALYPYDGIHPDDLSFKKGEKMKVLEEHGEWWKAKSLLTKKEGFIPSNYVAKLNTLETEEWFFKDITRKDAERQLLAPGNSAGAFLIRESETLKGSFSLSVRDFDPVHGDVIKHYKIRSLDNGGYYISPRITFPCISDMIKHYQKQADGLCRRLEKACISPKPQKPWDKDAWEIPRESIKLVKRLGAGQFGEVWMGYYNNSTKVAVKTLKPGTMSVQAFLEEANLMKTLQHDKLVRLYAVVTREEPIYIITEYMAKGSLLDFLKSDEGGKVLLPKLIDFSAQIAEGMAYIERKNYIHRDLRAANVLVSESLMCKIADFGLARVIEDNEYTAREGAKFPIKWTAPEAINFGCFTIKSDVWSFGILLYEIVTYGKIPYPGRTNADVMTALSQGYRMPRVENCPDELYDIMKMCWKEKAEERPTFDYLQSVLDDFYTATEGQYQQQP
# B9: ZAP70 (protein)
# chain: MPDPAAHLPFFYGSISRAEAEEHLKLAGMADGLFLLRQCLRSLGGYVLSLVHDVRFHHFPIERQLNGTYAIAGGKAHCGPAELCEFYSRDPDGLPCNLRKPCNRPSGLEPQPGVFDCLRDAMVRDYVRQTWKLEGEALEQAIISQAPQVEKLIATTAHERMPWYHSSLTREEAERKLYSGAQTDGKFLLRPRKEQGTYALSLIYGKTVYHYLISQDKAGKYCIPEGTKFDTLWQLVEYLKLKADGLIYCLKEACPNSSASNASGAAAPTLPAHPSTLTHPQRRIDTLNSDGYTPEPARITSPDKPRPMPMDTSVYESPYSDPEELKDKKLFLKRDNLLIADIELGCGNFGSVRQGVYRMRKKQIDVAIKVLKQGTEKADTEEMMREAQIMHQLDNPYIVRLIGVCQAEALMLVMEMAGGGPLHKFLVGKREEIPVSNVAELLHQVSMGMKYLEEKNFVHRDLAARNVLLVNRHYAKISDFGLSKALGADDSYYTARSAGKWPLKWYAPECINFRKFSSRSDVWSYGVTMWEALSYGQKPYKKMKGPEVMAFIEQGKRMECPPECPPELYALMSDCWIYKWEDRPDFLTVEQRMRACYYSLASKVEGPPGSTQKAEAACA
# Molecular target: T1, Bovine, dephosphorylated, Myelin Basic Protein (MBP), P02687
# T1 chain: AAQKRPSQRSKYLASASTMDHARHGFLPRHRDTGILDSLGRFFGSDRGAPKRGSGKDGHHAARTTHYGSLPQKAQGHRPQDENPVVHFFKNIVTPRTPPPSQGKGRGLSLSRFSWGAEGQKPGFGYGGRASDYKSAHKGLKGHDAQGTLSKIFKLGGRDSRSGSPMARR
row,Protein,MBP Kinase Activity
1,B1,Negative
2,B2,Negative
3,B3,Negative
4,B4,Strong
5,B5,Negative
6,B6,Negative
7,B7,Strong
8,B8,Weak
9,B9,Negative
